Measurements reported in paper PMC12416549 (2024).
Residue numbers refer to the chain shown, from its start. Numbers in names are those of the source.

Molecular target: T1, TNFR1 (Homo sapiens, UniProt P19438)
T1 chain: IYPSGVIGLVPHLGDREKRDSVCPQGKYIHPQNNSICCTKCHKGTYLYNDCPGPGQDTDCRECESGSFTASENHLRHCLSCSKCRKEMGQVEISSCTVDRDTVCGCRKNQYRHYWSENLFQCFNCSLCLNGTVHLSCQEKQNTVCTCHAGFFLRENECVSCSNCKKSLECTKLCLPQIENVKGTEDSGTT
Experiment: yeast display SC50

B1: R65N (designed binder)
chain: SMEEEVEKAAKEYEKKKKEAIEKHLEKLKAKDKEAAERFLKELEEAAKEYAKDEAKTMSEEEAKNRAKKYKEKVLLSELSEEEQKEIKEAEEKLVRTILKYVEEAAK
apparent Kd (screen): 1.4 nM

B2: K93W (designed binder)
chain: B1 chain with N65R, K93W
apparent Kd (screen): 2.73 nM

B3: L79I (designed binder)
chain: B1 chain with N65R, L79I
apparent Kd (screen): 1.86 nM

B4: E34S (designed binder)
chain: B1 chain with E34S, N65R
apparent Kd (screen): 0.718 nM

B5: E42Y (designed binder)
chain: B1 chain with E42Y, N65R
apparent Kd (screen): 6.43 nM

B6: K18G (designed binder)
chain: B1 chain with K18G, N65R
apparent Kd (screen): 0.653 nM

B7: E7M (designed binder)
chain: B1 chain with E7M, N65R
apparent Kd (screen): 10.4 nM

B8: E83R (designed binder)
chain: B1 chain with N65R, E83R
apparent Kd (screen): 0.539 nM

B9: A10V (designed binder)
chain: B1 chain with A10V, N65R
apparent Kd (screen): 0.49 nM

B10: D32E (designed binder)
chain: B1 chain with D32E, N65R
apparent Kd (screen): 0.956 nM

B11: A47C (designed binder)
chain: B1 chain with A47C, N65R
apparent Kd (screen): 0.49 nM

B12: R38K (designed binder)
chain: B1 chain with R38K, N65R
apparent Kd (screen): 10.4 nM

B13: E5P (designed binder)
chain: B1 chain with E5P, N65R
apparent Kd (screen): 0.446 nM

B14: S59N (designed binder)
chain: B1 chain with S59N, N65R
apparent Kd (screen): 1.69 nM

B15: A90G (designed binder)
chain: B1 chain with N65R, A90G
apparent Kd (screen): 0.49 nM

B16: K85Y (designed binder)
chain: B1 chain with N65R, K85Y
apparent Kd (screen): 0.446 nM

B17: K73P (designed binder)
chain: B1 chain with N65R, K73P
apparent Kd (screen): 5.31 nM

B18: M2T (designed binder)
chain: B1 chain with M2T, N65R
apparent Kd (screen): 0.446 nM

B19: K33R (designed binder)
chain: B1 chain with K33R, N65R
apparent Kd (screen): 0.869 nM

B20: A30L (designed binder)
chain: B1 chain with A30L, N65R
apparent Kd (screen): 0.593 nM

B21: L79P (designed binder)
chain: B1 chain with N65R, L79P
apparent Kd (screen): 7.78 nM

B22: E82T (designed binder)
chain: B1 chain with N65R, E82T
apparent Kd (screen): 0.49 nM

B23: R96T (designed binder)
chain: B1 chain with N65R, R96T
apparent Kd (screen): 1.54 nM

B24: K15Y (designed binder)
chain: B1 chain with K15Y, N65R
apparent Kd (screen): 0.446 nM

B25: A51W (designed binder)
chain: B1 chain with A51W, N65R
apparent Kd (screen): 0.49 nM

B26: A51T (designed binder)
chain: B1 chain with A51T, N65R
apparent Kd (screen): 3.3 nM

B27: A20T (designed binder)
chain: B1 chain with A20T, N65R
apparent Kd (screen): 0.718 nM

B28: S59G (designed binder)
chain: B1 chain with S59G, N65R
apparent Kd (screen): 0.446 nM

B29: K56H (designed binder)
chain: B1 chain with K56H, N65R
apparent Kd (screen): 4.83 nM

B30: E60T (designed binder)
chain: B1 chain with E60T, N65R
apparent Kd (screen): 1.4 nM

B31: E14D (designed binder)
chain: B1 chain with E14D, N65R
apparent Kd (screen): 1.16 nM

B32: K31T (designed binder)
chain: B1 chain with K31T, N65R
apparent Kd (screen): 0.593 nM

B33: E14C (designed binder)
chain: B1 chain with E14C, N65R
apparent Kd (screen): 9.41 nM

B34: E37N (designed binder)
chain: B1 chain with E37N, N65R
apparent Kd (screen): 0.446 nM

B35: A67F (designed binder)
chain: B1 chain with N65R, A67F
apparent Kd (screen): 18.3 nM

B36: S77F (designed binder)
chain: B1 chain with N65R, S77F
apparent Kd (screen): 1.05 nM

B37: A9H (designed binder)
chain: B1 chain with A9H, N65R
apparent Kd (screen): 0.539 nM

B38: K48L (designed binder)
chain: B1 chain with K48L, N65R
apparent Kd (screen): 0.49 nM

B39: F39G (designed binder)
chain: B1 chain with F39G, N65R
apparent Kd (screen): 2.73 nM

B40: S59L (designed binder)
chain: B1 chain with S59L, N65R
apparent Kd (screen): 1.05 nM

B41: K11Q (designed binder)
chain: B1 chain with K11Q, N65R
apparent Kd (screen): 0.446 nM

B42: K52D (designed binder)
chain: B1 chain with K52D, N65R
apparent Kd (screen): 0.446 nM

B43: K64G (designed binder)
chain: B1 chain with K64G, N65R
apparent Kd (screen): 0.49 nM

B44: S80V (designed binder)
chain: B1 chain with N65R, S80V
apparent Kd (screen): 1.27 nM

B45: E26K (designed binder)
chain: B1 chain with E26K, N65R
apparent Kd (screen): 0.49 nM

B46: L40C (designed binder)
chain: B1 chain with L40C, N65R
apparent Kd (screen): 0.446 nM

B47: M2V (designed binder)
chain: B1 chain with M2V, N65R
apparent Kd (screen): 0.446 nM

B48: K100A (designed binder)
chain: B1 chain with N65R, K100A
apparent Kd (screen): 1.4 nM

B49: L25M (designed binder)
chain: B1 chain with L25M, N65R
apparent Kd (screen): 0.539 nM

B50: E81C (designed binder)
chain: B1 chain with N65R, E81C
apparent Kd (screen): 0.869 nM

B51: K48A (designed binder)
chain: B1 chain with K48A, N65R
apparent Kd (screen): 0.446 nM

B52: E89M (designed binder)
chain: B1 chain with N65R, E89M
apparent Kd (screen): 1.05 nM

B53: E54Q (designed binder)
chain: B1 chain with E54Q, N65R
apparent Kd (screen): 10.4 nM

B54: A47Q (designed binder)
chain: B1 chain with A47Q, N65R
apparent Kd (screen): 0.49 nM

B55: I98L (designed binder)
chain: B1 chain with N65R, I98L
apparent Kd (screen): 13.8 nM
